Measurements from patent US20120148571A1 (Ablynx, published 2012).

Target: T1, human serum albumin (human, UniProt P02768 25-609)
T1 construct: also called HSA; humans serum albumin
Assay: SPR (Biacore), human serum albumin immobilized on CM5 chip, periplasmic Nanobody preparation injected in running buffer of pH 5, pH 6, pH 7 or HBS-EP+
Method: Human serum albumin is immobilized on a CM5 sensor chip surface via amine coupling using NHS/EDC for activation and ethanolamine for deactivation (Biacore amine coupling kit)
Approximately 1000 RU of cynomolgus and humans serum albumin respectively is immobilized. Experiments are performed at 25° C. […] This mixture is brought to pH7, pH6 and pH5 by adding HCl or NaOH (dependent on the pH of the mixture measured). Standard buffer HBS-EP+Periplasmic extracts or purified Nanobodies are diluted in running buffers of pH7, pH6 and pH5. The samples are injected for 1 min at a flow rate of 45 ul/min over the activated and reference surfaces. Those surfaces are regenerated with a 3 s pulse of glycine-HCl pH1.5+0.1% P20. Evaluation is done using Biacore T100 evaluation software.

B1: Nanobody 4A1 (VHH)
VHH: EVQLVESGGGLVQPEGSLRLSCRASGSIFSINTMGWYRQPPGKEREFVARIYPGITHYADSVKGRFTISRDNAKNTVYLQMNSLKPEDTAVYYCFYYYDDRNYWGEGTLVTVSS
notes: Injected as a periplasmic preparation of soluble Nanobody
B1: binds.
